Data as given in patent US20190367619A1 (ARGENX, published 2019).
Like-named read-outs stand apart in the source and are kept apart here.

T1: TEV-cleaved wild-type recombinant human galectin-10 (soluble, in Fab complexes, or as recombinant galectin-10 … (human, UniProt Q05315 1-142))
T1 sequence: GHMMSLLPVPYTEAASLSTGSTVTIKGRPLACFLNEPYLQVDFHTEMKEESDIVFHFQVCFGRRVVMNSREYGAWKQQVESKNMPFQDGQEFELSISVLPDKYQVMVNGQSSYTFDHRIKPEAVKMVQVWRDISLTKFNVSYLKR

T2: human galectin-10-His (recombinant human galectin-10 with TEV-cleavable N-terminal His-tag) (human)
T2 construct: SEC-MALLS: dimer in solution; also called Gal10-His; humanGal10-His
T2 chain: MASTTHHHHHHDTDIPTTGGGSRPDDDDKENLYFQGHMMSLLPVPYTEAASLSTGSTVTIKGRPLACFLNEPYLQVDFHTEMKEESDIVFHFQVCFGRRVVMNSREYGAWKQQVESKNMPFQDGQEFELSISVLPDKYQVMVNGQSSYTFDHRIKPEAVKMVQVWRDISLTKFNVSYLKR

T3: cynomolgus galectin-10-His, YRT isoform (cynomolgus)
T3 sequence: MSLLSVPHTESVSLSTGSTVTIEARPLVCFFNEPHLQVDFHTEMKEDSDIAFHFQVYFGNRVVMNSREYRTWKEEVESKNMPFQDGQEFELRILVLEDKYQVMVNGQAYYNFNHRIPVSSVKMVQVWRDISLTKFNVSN

T4: recombinant human galectin-10, TEV-cleaved (human, UniProt Q05315 1-142)
T4 sequence: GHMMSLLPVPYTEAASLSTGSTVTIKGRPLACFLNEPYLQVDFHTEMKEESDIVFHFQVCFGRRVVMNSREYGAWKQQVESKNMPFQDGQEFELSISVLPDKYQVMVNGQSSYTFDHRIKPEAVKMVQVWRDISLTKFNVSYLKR

T5: cynomolgus galectin-10-His, WGS isoform (cynomolgus)
T5 construct: also called cynoGal10-WGS; not shown: His tag
T5 chain: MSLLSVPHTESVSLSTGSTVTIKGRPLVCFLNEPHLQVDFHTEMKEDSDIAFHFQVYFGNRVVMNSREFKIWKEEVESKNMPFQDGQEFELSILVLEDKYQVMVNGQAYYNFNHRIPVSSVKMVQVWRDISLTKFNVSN

T6: human galectin-10-His (human)
T6 construct: The last M of the tag may be Met1 of galectin-10; also called humanGal10-His; hGal10
T6 chain: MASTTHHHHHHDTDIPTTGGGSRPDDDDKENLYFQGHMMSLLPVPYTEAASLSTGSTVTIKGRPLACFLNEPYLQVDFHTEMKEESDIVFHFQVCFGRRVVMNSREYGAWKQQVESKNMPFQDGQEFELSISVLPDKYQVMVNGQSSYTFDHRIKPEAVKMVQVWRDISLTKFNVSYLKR


Columns and labels:
[1] = target: TEV-cleaved wild-type recombinant human galectin-10 (soluble, in Fab complexes, or as recombinant galectin-10 crystals / CLCs) (human) (UniProt Q05315); assay: cell-based or functional assay
[2] = target: T1, TEV-cleaved wild-type recombinant human …; assay: cell-based or functional assay
[3] = target: T2, human galectin-10-His (recombinant …); assay: BLI tandem on galectin-10-His; competitor: saturating 6E10 mIgG1 (10 ug/mL)
In short: (§1)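 Anti-His tips load galectin-10-His → excess saturating mAb → direct transfer to competitor mAb (suboptimal conc.). Read-out: BLI nm shift; no signal = same epitope.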

[4] = target: T2, human galectin-10-His (recombinant …); assay: BLI tandem on galectin-10-His; competitor: saturating 6F06 mIgG1 (10 ug/mL)
In short: as §1

[5] = target: T2, human galectin-10-His (recombinant …); assay: BLI tandem on galectin-10-His; competitor: saturating 1C09 mIgG1 (10 ug/mL)
In short: as §1

[6] = target: T2, human galectin-10-His (recombinant …); assay: BLI tandem on galectin-10-His; competitor: saturating 2F09 mIgG1 (10 ug/mL)
In short: as §1

[7] = target: T2, human galectin-10-His (recombinant …); assay: SPR Biacore T3000, mouse IgG1 captured by anti-mouse Fc, galectin-10-His as analyte
In short: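 Polyclonal anti-mouse Fc on a CM5 chip (8000 RU) captured each mouse IgG1 (1.5 μg/mL) to around 150 RU. Galectin-10-His was then injected as a 1:2 serial dilution from 5 μg/mL in HBS-EP pH7.4. After blank subtraction, kd/KD and Rmax came from a simultaneous ka/kd fit with mass transfer and local Rmax.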

[8] = target: T2, human galectin-10-His (recombinant …); assay: BLI tandem on galectin-10-His; competitor: saturating 6B06 mIgG1 (10 ug/mL)
In short: as §1

[9] = target: T1, TEV-cleaved wild-type recombinant human …; assay: cell-based or functional assay; remark: listed apart in the source
[10] = target: T2, human galectin-10-His (recombinant …); assay: BLI tandem on galectin-10-His; competitor: saturating 4E08 mIgG1 (10 ug/mL)
In short: as §1

[11] = target: T2, human galectin-10-His (recombinant …); assay: BLI tandem on galectin-10-His; competitor: saturating 1D11 mIgG1 (10 ug/mL)
In short: as §1

[12] = target: T2, human galectin-10-His (recombinant …); assay: BLI tandem on galectin-10-His; isotype control as saturating antibody (10 ug/mL)
In short: as §1

[13] = target: T2, human galectin-10-His (recombinant …); assay: BLI tandem on galectin-10-His; competitor: saturating 6A05 mIgG1 (10 ug/mL)
In short: as §1

[14] = target: T1, TEV-cleaved wild-type recombinant human …; assay: cell-based or functional assay; remark: listed apart in the source
[15] = target: T2, human galectin-10-His (recombinant …); assay: BLI tandem on galectin-10-His; competitor: saturating 6A08 mIgG1 (10 ug/mL)
In short: as §1

[16] = target: T2, human galectin-10-His (recombinant …); assay: BLI tandem on galectin-10-His; competitor: saturating 2C07 mIgG1 (10 ug/mL)
In short: as §1

[17] = target: T2, human galectin-10-His (recombinant …); assay: ELISA binding (summary table), mouse IgG1
[18] = target: T2, human galectin-10-His (recombinant …); assay: ELISA, mouse IgG1 on coated galectin-10-His (0.2 ug/mL)
In short: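 Serial dilutions of each antibody (from 100 nM, 1/4 steps, 12 points) were incubated on plates coated overnight with the antigen. Bound IgG1 detected with anti-mouse Fc-HRP, absorbance at 450 nm (reference 620 nm). EC50 from four-parameter variable-slope non-linear regression of OD values.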

[19] = target: T2, human galectin-10-His (recombinant …); assay: Biacore capture approach (summary table), mouse IgG1
Protocol: The binding capacity of the mouse IgG1 antibodies to galectin-10 was analyzed on Biacore T3000. For this purpose, a capture approach was set up. A CM5 Chip was coated with polyclonal anti-mouse Fc at 8000 RU, then a fixed concentration of the mouse IgG1 antibody panel (1.5 μg/mL), diluted in HBS-EP pH7.4, was captured to reach a binding signal around 150 RU. Finally, a serial dilution of galectin-10-His (serial dilution, 1 over 2 from 5 μg/mL) diluted in HBS-EP pH7.4 was injected. Raw data were analyzed via BIA evaluation software with a blank subtraction (4-3). The kd/KD and Rmax of each mAb to galectin-10-His was determined using the Fit Kinetics simultaneous ka/kd/Binding with mass transfer/Local Rmax on BIA evaluation software.

[20] = target: T3, cynomolgus galectin-10-His, YRT isoform (cynomolgus); assay: ELISA, coated antigen 0.5 ug/mL
[21] = target: T4, recombinant human galectin-10, …; assay: cell-based or functional assay
[22] = target: T4, recombinant human galectin-10, …; assay: cell-based or functional assay; remark: listed apart in the source
[23] = target: T5, cynomolgus galectin-10-His, WGS isoform; assay: ELISA, coated antigen 0.5 ug/mL
[24] = target: T6, human galectin-10-His; assay: ELISA, coated antigen 0.5 ug/mL
[25] = target: T5, cynomolgus galectin-10-His, WGS isoform; assay: SPR Biacore T3000, mouse IgG1 captured
[26] = target: T6, human galectin-10-His; assay: SPR Biacore T3000, mouse IgG1 captured

| Molecule | 100% Inhibition of CLC formation (Conc uM) [2] [µM] | 100% Solubilization of CLC (Conc uM) [2] [µM] | binding signal (nm) [3] [nm] | binding signal (nm) [4] [nm] | binding signal (nm) [5] [nm] | binding signal (nm) [6] [nm] | Kd [7] [nM] | koff [7] [s⁻¹] | binding signal (nm) [8] [nm] | 100% Solubilization of CLC (Conc uM) [9] [µM] | binding signal (nm) [10] [nm] | binding signal (nm) [11] [nm] | binding signal (nm) [12] [nm] | binding signal (nm) [13] [nm] | dissolution of in vitro grown Gal10 crystals (spinning disk confocal microscopy) [14] [min] | binding signal (nm) [15] [nm] | binding signal (nm) [16] [nm] | EC50 [17] [nM] | Bmax [18] [OD] | EC50 [18] [nM] | other results |
| --- | --- | --- | --- | --- | --- | --- | --- | --- | --- | --- | --- | --- | --- | --- | --- | --- | --- | --- | --- | --- | --- |
| mouse IgG1 isotype control (irrelevant mouse IgG1) (antibody) |  |  |  |  |  |  |  |  |  |  |  |  |  |  |  |  |  |  |  |  | CLC formation (crystallization robot assay) [1]: 100% |
| 4E08 mouse IgG1 (antibody, V domains shown, VH on mouse IgG1 heavy chain constant domains (CH1-CH2-CH3), VL on mouse lambda light chain constant domain; also called 4E8; 4E08 mIgG1) VH: QVQRQESGPGLVKPSQTLSLTCTVSGGSITTSYYAWSWIRQPPGKGLEWMGVIASDGSTYYSPSLKSRTSISRDTSKNQFSLQLSSVTPEDTAVYYCALYIRGSSWSGWSAYDYWGQGTQVTVSS VL: QPVLNQPSAVSVSLGQTARITCQGGNFGYYYGSWYQQKPGQAPVLVIYKDSERPSGIPERFSGSSSGGTATLTISRAQAEDEADYYCQSADSSDNPVFGGGTHLTVL | 1.11 | > 10 | -0.05 | 0.01 | -0.02 | 0.01 | 0.8 | 0.00085 | 0 | > 10 | -0.08 | 0.03 | 0.97 | 0.03 | ≤ 90 | -0.03 | 0 | 3.22 | 2.06 | 3.22 | Kd [19]: 0.8 nM; koff [19]: 0.00085 s⁻¹ |
| 1D11 mouse IgG1 (antibody, V domains shown) VH: QVQLVESGGGLVQPGGSLRLSCAASGFTFDDYAMSWVRQAPGKGLEWVSGISWNGGSTYYAESMKGRFTISRDNAKNTLYLQMNSLKSEDTAVYYCAKDRNLGYRLGYPYDYWGQGTQVTVSS VL: QSVLTQPPSVSGSPGETVTISCAGTSSDVGYGNYVSWYQQLPGMAPRLLIYEVNKRASGITDRFSGSKSGNTASLTISGLQSEDEGDYYCASYRSSNNAVFGGGTHLTVL |  |  |  |  |  |  |  |  |  |  |  |  |  |  |  |  |  |  |  |  | OD values [20]: 0.03 OD |
| 7B07 mouse IgG1 (antibody, V domains shown, VH and VL cloned in frame with mouse IgG1 constant domains; also called 7B07 mIgG1) VH: QVQLVESGGGLVQPGGSLRLSCAASGFTFRSYDMSWVRQAPGKGPEWVSAIKNGGGITYYADSVKGRFTISRDNAKNTLYLQMNSLKPEDTAVYYCATTHGIGTLGFGSWGQGTQVTVSS VL: SYELTQSASVSVALTQTAKITCDGNNIGSKSAQWYQQKPGQAPALVIYADEYRPEGIPERFSGSNSGNTATLIISGAQAEDEADYYCQVWDGSAAVFGRGTHLTVL |  |  |  |  |  |  |  |  |  |  |  |  |  |  |  |  |  |  |  |  | 50% dissolution (min) of CLCs, antibody 50 uM [21]: 13.2 min; 90% dissolution (min) of CLCs, antibody 50 uM [21]: 44.4 min; 50% crystal dissolution (min), 50 uM [22]: 31.8 min; 90% crystal dissolution (min), 50 uM [22]: 93 min; EC50 [23]: 0.06 nM; OD values [23]: 3.22 OD; EC50 [24]: 0.57 nM; OD values [24]: 0.4 OD; OD values [20]: 0.01 OD; Kd [25]: 1.5 nM; koff [25]: 0.066 s⁻¹; kon [25]: 4.54e+07 M⁻¹ s⁻¹; Kd [26]: 1.4 nM; koff [26]: 0.0039 s⁻¹; kon [26]: 2.78e+06 M⁻¹ s⁻¹ |
| 1C09 mouse IgG1 (antibody, V domains shown, VH on mouse IgG1 heavy chain constant domains (CH1-CH2-CH3), VL on mouse lambda light chain constant domain; also called 1C09 mIgG1) VH: QVQLVESGPGLVKPSQTLSLTCTVSGGSITTNSYYWSWIRQPPGKGLEWMGAIAYSGSTYYSPSLKSRTSISRDTSKNQFTLHLSSVTPEDTAVYYCARRPNWYRALDAWGQGTLVTVSS VL: NFMLTQPSAVSVSLGQTARITCQGANLGRYYGIWYQQKPGQAPVQVIYGDSNRPSGIPERFSGSSSGGTATLTISGAQAEDEADYYCQSYESSTSPVFGGGTHLTVL | 0.82 | 10.5 | 0.02 | 0.04 | 0.03 | 0.02 | 0.5 | 0.00529 | 0.02 | 10.5 | 0.08 | 0.1 | 1.21 | 0.09 | ≤ 90 | 0.04 | 0.03 | 0.13 | 2.3 | 0.13 | Kd [19]: 0.5 nM; koff [19]: 0.00529 s⁻¹ |
